{"source": "patent US8722052B2", "about": "“Vaccinia virus protein A46 peptide and use thereof” (priority 2008, dated 2014)"}
{"target": "T1, TLR4 (Mus musculus, UniProt Q9QUK6)", "T1 sequence (Q9QUK6 26-835)": "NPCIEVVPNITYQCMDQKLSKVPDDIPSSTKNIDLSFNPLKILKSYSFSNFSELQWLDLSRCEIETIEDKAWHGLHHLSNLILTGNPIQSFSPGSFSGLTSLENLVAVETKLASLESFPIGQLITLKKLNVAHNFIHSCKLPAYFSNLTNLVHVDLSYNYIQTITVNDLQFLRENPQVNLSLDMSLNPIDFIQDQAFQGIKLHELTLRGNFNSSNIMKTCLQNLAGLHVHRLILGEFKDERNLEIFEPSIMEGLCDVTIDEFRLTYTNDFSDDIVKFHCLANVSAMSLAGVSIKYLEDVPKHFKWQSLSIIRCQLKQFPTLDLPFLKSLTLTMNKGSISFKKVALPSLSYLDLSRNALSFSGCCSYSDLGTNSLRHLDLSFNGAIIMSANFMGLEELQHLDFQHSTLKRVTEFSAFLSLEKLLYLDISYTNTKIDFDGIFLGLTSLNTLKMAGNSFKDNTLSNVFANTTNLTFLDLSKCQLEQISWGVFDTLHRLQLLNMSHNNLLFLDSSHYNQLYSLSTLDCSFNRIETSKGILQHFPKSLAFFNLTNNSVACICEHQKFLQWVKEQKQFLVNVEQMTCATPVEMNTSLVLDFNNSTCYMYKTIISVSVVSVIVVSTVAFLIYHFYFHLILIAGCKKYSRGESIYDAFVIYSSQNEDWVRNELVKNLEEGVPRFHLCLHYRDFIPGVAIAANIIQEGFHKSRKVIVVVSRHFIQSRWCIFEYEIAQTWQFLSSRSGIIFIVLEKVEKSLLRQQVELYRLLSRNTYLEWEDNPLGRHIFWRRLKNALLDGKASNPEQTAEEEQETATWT", "T1 sequence (Q9JHF9 19-160 partner)": "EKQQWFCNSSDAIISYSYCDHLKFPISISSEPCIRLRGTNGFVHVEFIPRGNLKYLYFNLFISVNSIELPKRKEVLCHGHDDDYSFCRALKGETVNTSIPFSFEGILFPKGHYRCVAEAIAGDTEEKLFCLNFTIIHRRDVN", "test": "LPS-induced TNFα in immortalised murine macrophages, ELISA", "assay_type": "cell-based", "design": "endogenous in cells; immortalised murine bone-marrow-derived macrophages", "details": "peptide 1, 3, 6.25 and 12.5 μM, 20 ng/ml LPS, 6 h"}
{"substance": "9R-FKLIL (RRRRRRRRRFKLIL) [Peptide 9R-FKLIL]", "inhibition of TLR4-induced murine TNFα by shorter versions of sA464N9R": "retained the ability to inhibit TLR4"}
{"substance": "9R-SFKLFL (RRRRRRRRRSFKLFL) [Peptide 9R-SFKLFL]", "inhibition of TLR4-induced murine TNFα by shorter versions of sA464N9R": "did not"}
{"substance": "9R-SFKLI (RRRRRRRRRSFKLI) [Peptide 9R-SFKLI]", "inhibition of TLR4-induced murine TNFα by shorter versions of sA464N9R": "did not"}
